Positions of bridges follow the written chain, without caps; N, C: chain ends.

This is an account of results in patent publication US20060014680A1, “Peptides and compounds that bind to the IL-5 receptor” (priority 2004, published 2006).

First the molecules themselves.
T1: human IL-5Rα extracellular domain (Homo sapiens, UniProt Q01344)
T1 construct: human IL-5Rα extracellular domain harvest; made in house; host or cells: CHO cells
T1 sequence (Q01344 21-342 limits assumed): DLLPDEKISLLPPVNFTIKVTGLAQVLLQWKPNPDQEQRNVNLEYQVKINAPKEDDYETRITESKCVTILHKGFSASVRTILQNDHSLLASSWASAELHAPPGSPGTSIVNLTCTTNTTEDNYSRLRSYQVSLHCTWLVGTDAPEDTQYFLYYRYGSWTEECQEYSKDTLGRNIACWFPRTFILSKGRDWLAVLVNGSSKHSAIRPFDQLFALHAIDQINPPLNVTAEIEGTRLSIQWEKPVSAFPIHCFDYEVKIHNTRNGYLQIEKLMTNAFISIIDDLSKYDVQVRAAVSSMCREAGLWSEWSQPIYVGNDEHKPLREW

T2: human IL-5 receptor (Homo sapiens, UniProt P32927+Q01344)
T2 construct: endogenous in cells; host or cells: HL60 subclone induced towards eosinophil differentiation with sodium butyrate
T2 sequence (Q01344 21-420): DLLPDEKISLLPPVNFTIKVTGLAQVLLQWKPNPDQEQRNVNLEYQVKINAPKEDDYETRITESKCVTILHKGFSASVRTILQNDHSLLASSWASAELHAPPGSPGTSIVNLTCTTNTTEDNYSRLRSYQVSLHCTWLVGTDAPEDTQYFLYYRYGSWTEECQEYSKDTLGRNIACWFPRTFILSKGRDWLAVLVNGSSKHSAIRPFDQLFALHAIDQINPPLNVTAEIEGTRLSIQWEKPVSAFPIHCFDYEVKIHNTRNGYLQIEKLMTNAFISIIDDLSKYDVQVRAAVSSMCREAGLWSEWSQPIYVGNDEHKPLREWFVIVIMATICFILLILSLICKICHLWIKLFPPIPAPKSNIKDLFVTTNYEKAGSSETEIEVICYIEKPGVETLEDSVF
T2 sequence (P32927 17-897): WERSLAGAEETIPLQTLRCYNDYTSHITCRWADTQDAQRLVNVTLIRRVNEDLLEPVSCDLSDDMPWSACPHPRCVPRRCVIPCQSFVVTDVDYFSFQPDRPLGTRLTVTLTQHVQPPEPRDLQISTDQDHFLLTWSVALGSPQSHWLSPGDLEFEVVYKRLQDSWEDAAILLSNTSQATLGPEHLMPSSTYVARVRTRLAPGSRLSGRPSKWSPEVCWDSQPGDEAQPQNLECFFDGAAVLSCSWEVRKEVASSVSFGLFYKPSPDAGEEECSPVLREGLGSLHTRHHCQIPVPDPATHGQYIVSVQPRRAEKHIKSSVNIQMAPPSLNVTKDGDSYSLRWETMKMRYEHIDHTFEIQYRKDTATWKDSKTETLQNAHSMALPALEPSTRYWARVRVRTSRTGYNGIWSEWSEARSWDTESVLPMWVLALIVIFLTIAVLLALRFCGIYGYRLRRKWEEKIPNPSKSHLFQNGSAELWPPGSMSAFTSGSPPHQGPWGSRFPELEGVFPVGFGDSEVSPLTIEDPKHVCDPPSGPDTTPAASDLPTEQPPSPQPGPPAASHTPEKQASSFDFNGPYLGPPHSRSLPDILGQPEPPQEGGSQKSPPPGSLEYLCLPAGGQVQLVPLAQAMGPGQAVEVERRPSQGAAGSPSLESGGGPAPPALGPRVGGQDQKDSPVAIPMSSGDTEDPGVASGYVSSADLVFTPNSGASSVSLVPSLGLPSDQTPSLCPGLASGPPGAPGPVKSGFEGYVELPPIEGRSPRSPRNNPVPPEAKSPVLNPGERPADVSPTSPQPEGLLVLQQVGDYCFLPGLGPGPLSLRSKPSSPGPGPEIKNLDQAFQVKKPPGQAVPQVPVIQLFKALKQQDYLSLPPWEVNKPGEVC

T3: human IL-5Rα extracellular domain harvest with a MAb 179 epitope tag (human, UniProt Q01344 21-342)
T3 construct: extracellular domain; Captured on MAb179-conjugated AlphaScreen acceptor beads; also called IL-5 receptor; IL-5R-α chain ECD
T3 sequence (looked up): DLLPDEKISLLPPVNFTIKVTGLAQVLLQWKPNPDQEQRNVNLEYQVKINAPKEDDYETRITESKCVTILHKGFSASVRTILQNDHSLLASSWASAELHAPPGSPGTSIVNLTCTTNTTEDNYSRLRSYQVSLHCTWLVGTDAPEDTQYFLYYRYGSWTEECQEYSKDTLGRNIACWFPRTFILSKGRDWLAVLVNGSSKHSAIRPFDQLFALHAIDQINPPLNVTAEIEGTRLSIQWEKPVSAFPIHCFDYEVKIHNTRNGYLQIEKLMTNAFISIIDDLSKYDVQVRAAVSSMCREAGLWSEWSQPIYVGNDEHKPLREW

One assay deals with T1, human IL-5Rα extracellular domain. Briefly: IL-5 receptor-ligand Alpha Quest binding assay (alanine scan of AF17121, FIG. 1). Particulars: relative to parent monomer AF17121 (SEQ ID NO:1); single Ala substitution. The protocol: The affinity of compounds for the IL-5 receptor was tested in a homogeneous Alpha Quest binding assay. The peptides tested were solubilized at approximately 10 mM in DMSO. Each peptide was then serially diluted into freshly made, sterile filtered assay buffer (40 mM Hepes, pH 7.4 with NaOH, containing 1 mM MgCl2, 0.1% BSA and 0.05% Tween-20). Four microliters of each test compound dilution was transferred in triplicate to a 384-well, low volume, white, polypropylene Griener plate (E&K Scientific #31075). A mixture was prepared in assay buffer containing Packard Bioscience AlphaScreen streptavidin coated donor beads at […], MAb179 (prepared as described in Whitehom, E., A Generic Method for Expression and Use of “Tagged” Soluble Versions of Cell Surface Receptor, Biotechnolgy 1995, 13, 1215-1219) conjugated Packard Bioscience Alpha Screen acceptor beads per manufactures protocol, at 40 ug/mL, and human IL-5Rα extracellular domain harvest with a MAb 179 epitope tag prepared as previously described (England, B., A Potent Dimeric Peptide Antagonist of Interleukin-5 that Binds Two Interleukin-5 Receptor α Chains, PNAS, vol.97, no. 12, 6862-6867). Two microliters of beads and receptor harvest mixture were added to each assay well. Alpha Quest beads are light sensitive so all steps after the introduction of the beads were carried out under green lighting (lights adapted with Roscolux Chroma Green #389 filter sleeves which transmit <1% at 680 nm). After a 5-10 minute room temperature incubation, two microliters of 62.4 nM biotinylated MBP-AF12368, GEVCTRDVANHRWMCGVD (SEQ ID NO 73), tracer peptide (prepared as described in Schatz P., Use of Peptide Libraries to Map the Substrate Specificity of a Peptide-Modifying Enzyme: A 13 Residue Consensus Peptide Specifies Biotinylation in Escherichia coli, Biotechnology 1993, 11, 1138-1143) diluted in assay buffer was added to each well. The assay plate was spun to 55 rpm in a plate centrifuge, sealed with Packard Top Seal, wrapped in foil and placed in a room temperature incubator in the instrument room. The plate was read after 16-20 hours using a Packard Bioscience Alpha Quest Discovery™ plate reader.
Results for various compound embodiments of the invention are depicted in FIGS. 1-4 and 6-8.
Regarding “Ac-ADECWRIIASHTWFCAEE-NH2 (cysteine pairing not given here) [AF35921]”, the “more potent (peptide monomer with single alanine substitution)” value is listed as “about 350%”.
For the molecule “Ac-VDECWRIIAAHTWFCAEE-NH2 (cysteine pairing not given here) [AF35912]”, the “more potent (peptide monomer with single alanine substitution)” value is on record as “about 450%”.
For “Ac-VDECWRIIASHAWFCAEE-NH2 (cysteine pairing not given here) [AF35910]”, the “more potent (peptide monomer with single alanine substitution)” value is “about 135%”.
In the case of “Ac-Val Ala Glu Cys Trp Arg Ile Ile Ala Ser His Thr Trp Phe Cys Ala Glu Glu-NH2 (Ac-VAECWRIIASHTWFCAEE-NH2; not fully specified (bridges); printed as Ac-Val Ala Glu Cys Trp Arg Ile Ile Ala Ser His Thr Trp Phe Cys Ala Glu Glu-NH2; cysteine pairing not given here) [AF35920]”, the “more potent (peptide monomer with single alanine substitution)” value was “about 200%”.
On the same count and under the same terms, as for “Ac-Val Asp Ala Cys Trp Arg Ile Ile Ala Ser His Thr Trp Phe Cys Ala Glu Glu-NH2 (Ac-VDACWRIIASHTWFCAEE-NH2; not fully specified (bridges); printed as Ac-Val Asp Ala Cys Trp Arg Ile Ile Ala Ser His Thr Trp Phe Cys Ala Glu Glu-NH2; cysteine pairing not given here) [AF35918]”, the entry is “about 675%”.

The target in a further assay is T2, human IL-5 receptor.
Assay: not given
To be noted: high affinity IL-5 binding sites; HL60 subclone, eosinophilic differentiation initiated with sodium butyrate; cited from earlier work.
“IL-5: lymphokine secreted by T cells and mast cells, having biological activities on B cells and eosinophils”: the Kd is 0.03 nM.

In the next assay the target is T3, human IL-5Rα extracellular domain …. Kind of assay: alanine scan of AF17121, AlphaQuest competition binding assay on human IL-5Rα ECD with the tracer biotinylated MBP-AF12368 (the assay is named by FIG. 1, not by the sentence).
Settings: not given
The protocol: The affinity of compounds for the IL-5 receptor was tested in a homogeneous Alpha Quest binding assay. The peptides tested were solubilized at approximately 10 mM in DMSO. Each peptide was then serially diluted into freshly made, sterile filtered assay buffer (40 mM Hepes, pH 7.4 with NaOH, containing 1 mM MgCl₂, 0.1% BSA and 0.05% Tween-20). Four microliters of each test compound dilution was transferred in triplicate to a 384-well, low volume, white, polypropylene Griener plate (E&K Scientific #31075). A mixture was prepared in assay buffer containing Packard Bioscience AlphaScreen streptavidin coated donor beads at […], MAb179 (prepared as described in Whitehom, E., A Generic Method for Expression and Use of “Tagged” Soluble Versions of Cell Surface Receptor, Biotechnolgy 1995, 13, 1215-1219) conjugated Packard Bioscience Alpha Screen acceptor beads per manufactures protocol, at 40 ug/mL, and human IL-5Rα extracellular domain harvest with a MAb 179 epitope tag prepared as previously described (England, B., A Potent Dimeric Peptide Antagonist of Interleukin-5 that Binds Two Interleukin-5 Receptor α Chains, PNAS, vol.97, no. 12, 6862-6867). Two microliters of beads and receptor harvest mixture were added to each assay well. Alpha Quest beads are light sensitive so all steps after the introduction of the beads were carried out under green lighting (lights adapted with Roscolux Chroma Green #389 filter sleeves which transmit <1% at 680 nm). After a 5-10 minute room temperature incubation, two microliters of 62.4 nM biotinylated MBP-AF12368, […] (SEQ ID NO 73), tracer peptide (prepared as described in Schatz P., Use of Peptide Libraries to Map the Substrate Specificity of a Peptide-Modifying Enzyme: A 13 Residue Consensus Peptide Specifies Biotinylation in Escherichia coli, Biotechnology 1993, 11, 1138-1143) diluted in assay buffer was added to each well. The assay plate was spun to 55 rpm in a plate centrifuge, sealed with Packard Top Seal, wrapped in foil and placed in a room temperature incubator in the instrument room. The plate was read after 16-20 hours using a Packard Bioscience Alpha Quest Discovery™ plate reader.
Consider Ac-VAECWRIIASHTWFCAEE-NH2 (disulfide 4-15 (inferred)) [AF35920 (Ac-Val Ala Glu Cys Trp Arg Ile Ile Ala Ser His Thr Trp Phe Cys Ala Glu Glu-NH2)], for which the “percent more potent than AF17121 (SEQ ID NO: 1)” value was approximately 200%.
Still for that read-out and setting: as for Ac-VDECWRIIASHAWFCAEE-NH2 (disulfide 4-15 (inferred)) [AF35910 (Ac-Val Asp Glu Cys Trp Arg Ile Ile Ala Ser His Ala Trp Phe Cys Ala Glu Glu-NH2)], the figure is approximately 135%; as for Ac-ADECWRIIASHTWFCAEE-NH2 (disulfide 4-15 (inferred)) [AF35921 (Ac-Ala Asp Glu Cys Trp Arg Ile Ile Ala Ser His Thr Trp Phe Cys Ala Glu Glu-NH2)], approximately 350%.
On to Ac-VDECWRIIAAHTWFCAEE-NH2 (disulfide 4-15 (inferred)) [AF35912 (Ac-Val Asp Glu Cys Trp Arg Ile Ile Ala Ala His Thr Trp Phe Cys Ala Glu Glu-NH2)], for which the “percent more potent than AF17121 (SEQ ID NO: 1)” value was approximately 450%.
On to Ac-VDACWRIIASHTWFCAEE-NH2 (disulfide 4-15 (inferred)) [AF35918 (Ac-Val Asp Ala Cys Trp Arg Ile Ile Ala Ser His Thr Trp Phe Cys Ala Glu Glu-NH2)], for which the “percent more potent than AF17121 (SEQ ID NO: 1)” value is approximately 675%.
